The results in this text go back to US20250228951A1, “NOVEL-PEPTIDE-BASED ANTICANCER IMMUNOTHERAPEUTIC AGENT” (TWINPIG BIOLAB INC., priority 2022, published 2025).

Assay [1] relates to M2 macrophages. The assay is described as follows: Flow cytometry of FITC-conjugated melittin on THP-1-derived M0, M1 and M2 macrophages. The assay is classed as cell-based, human. As to conditions: 50 nM FITC-conjugated melittin, 1 hour; M2 macrophages compared to the other macrophage types. The protocol: To confirm whether the melittin fabricated in Example 1 specifically bound to M2 tumor-associated macrophages (M2 TAMs), a human monocyte cell line THP-1 was differentiated into M0, M1, and M2 macrophages, and treated with FITC-conjugated melittin, and then confirmed by flow cytometry. Specifically, THP-1 cells were treated with 100 nM phorbol 12-myristate 13-acetate (PMA) at 37° C. for 24 hours (M0 macrophages), and the differentiated M0 macrophages were incubated with 100 nM LPS and 20 ng/ml IFN-γ at 37° C. for 72 hours to be differentiated into M1 macrophages (M1), and incubated with 20 ng/ml IL-4 and IL-13 at 37° C. for 72 hours to be differentiated into M2 macrophages (M2). The differentiated cells were treated with 50 nM FITC-conjugated melittin for 1 hour, detected with BD FACS CantoII instruments (BD biosciences, San Jose, CA, USA), and analyzed with FlowJo software (BD biosciences).

For assay [2], the system named is M2 macrophages in which ITGB2 expression was suppressed by Crispr/cas9. The assay is described as follows: CCK-8 cell viability in M2 macrophages with ITGB2 expression suppressed by Crispr/cas9. The assay is classed as cell-based, human. As to conditions: Melittin-dKLA 1 μM, ITGB2 knocked down M2 macrophages. The protocol:
As a cell model used to confirm whether apoptosis was induced through ITGB2 in M2 macrophages, a cell model in which the expression of ITGB2 was suppressed in M2 macrophages was fabricated using Crispr/cas9. Specifically, cells differentiated into M2 macrophages were cultured in an Opti-MEM medium. The Crispr/cas9 was mixed with Cas9 protein V2 (Thermo Fisher scientific) and gRNA (Genscript; ITGB2; Table 7) of a CRISPRMAX™ Reagent kit (Thermo Fisher scientific) and a Cas9 Plus™ Reagent (Thermo Fisher scientific), and a CRISPRMAX™ Reagent was diluted in the Opti-MEM medium, mixed together, and reacted for 5 to 10 minutes, and then added to cells differentiated into M2 macrophages and cultured at 37° C. for 2 to 3 days. Thereafter, the mRNA expression level of ITGB2 was confirmed.
To confirm whether Melittin-dKLA bound to ITGB2 to induce apoptosis in M2 macrophages, Melittin-dKLA (1 μM) was treated for 24 hours to M2 macrophages in which ITGB2 expression was suppressed by Crispr/cas9 fabricated in Example 7-1 above, and cell viability was analyzed using a CCK-8 assay. Specifically, Melittin-dKLA (1 μM) reacted with ITGB2 knockdown macrophages fabricated in Example 7-1 above for 1 hour. After the reaction, the medium was replaced and cultured at 37° C. for 24 hours. […] Absorbance was measured at 450 nm using a microplate reader (Molecular Devices). […]

Assay [3] deals with M2 macrophages. The assay is described as follows: CCK-8 cell viability in M2 macrophages. The assay is classed as cell-based, human. As to conditions: Melittin-dKLA 1 μM, control M2 macrophages. The protocol:
To confirm whether Melittin-dKLA bound to ITGB2 to induce apoptosis in M2 macrophages, Melittin-dKLA (1 μM) was treated for 24 hours to M2 macrophages in which ITGB2 expression was suppressed by Crispr/cas9 fabricated in Example 7-1 above, and cell viability was analyzed using a CCK-8 assay. Specifically, Melittin-dKLA (1 μM) reacted with ITGB2 knockdown macrophages fabricated in Example 7-1 above for 1 hour. After the reaction, the medium was replaced and cultured at 37° C. for 24 hours. To determine cell viability, a CCK-8 reagent (Enzo Life Sciences) was added in 1/10 of the medium and reacted at 37° C. for 3 hours. Absorbance was measured at 450 nm using a microplate reader (Molecular Devices).
To confirm whether TB511 (TAMpep826-dKLA) induced apoptosis through ITGB2 in M2 macrophages, TB511 reacted with M2 macrophages in which ITGB2 expression was suppressed by Crispr/cas9 fabricated in Example 7-1.

Assay [4] has as its target ITGB2 protein immobilised on the SPR sensor chip (UniProt P05107).

Chain of ITGB2 protein immobilised on the SPR sensor chip (P05107 23-700 limits assumed): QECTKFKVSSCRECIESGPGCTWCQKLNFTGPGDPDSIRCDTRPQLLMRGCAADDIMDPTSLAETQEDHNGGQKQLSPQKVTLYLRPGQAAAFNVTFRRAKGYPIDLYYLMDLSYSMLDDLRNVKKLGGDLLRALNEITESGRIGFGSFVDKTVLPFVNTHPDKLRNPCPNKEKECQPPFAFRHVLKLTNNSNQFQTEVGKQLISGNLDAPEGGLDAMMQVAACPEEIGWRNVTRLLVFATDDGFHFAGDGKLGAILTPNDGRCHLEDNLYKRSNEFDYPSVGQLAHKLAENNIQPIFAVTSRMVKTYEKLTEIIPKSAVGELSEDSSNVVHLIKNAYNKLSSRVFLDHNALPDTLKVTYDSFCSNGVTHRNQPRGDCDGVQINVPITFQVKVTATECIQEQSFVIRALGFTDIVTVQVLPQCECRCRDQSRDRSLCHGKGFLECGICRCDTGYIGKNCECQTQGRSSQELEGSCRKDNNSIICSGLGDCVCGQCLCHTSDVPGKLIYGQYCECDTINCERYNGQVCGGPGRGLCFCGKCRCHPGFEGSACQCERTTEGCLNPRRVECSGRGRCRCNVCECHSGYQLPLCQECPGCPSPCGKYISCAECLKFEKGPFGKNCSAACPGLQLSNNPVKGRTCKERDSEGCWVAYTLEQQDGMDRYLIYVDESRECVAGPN

Regarding `CC[C@H](C)[C@H](NC(=O)CN)C(=O)NCC(=O)N[C@@H](C)C(=O)N[C@H](C(=O)N[C@@H](CC(C)C)C(=O)N[C@@H](CCCCN)C(=O)N[C@H](C(=O)N[C@@H](CC(C)C)C(=O)N[C@H](C(=O)N[C@H](C(=O)NCC(=O)N[C@@H](CC(C)C)C(=O)N1CCC[C@H]1C(=O)N[C@@H](C)C(=O)N[C@@H](CC(C)C)C(=O)N[C@H](C(=O)N[C@@H](CO)C(=O)N[C@@H](Cc1c[nH]c2ccccc12)C(=O)N[C@H](C(=O)N[C@@H](CCCCN)C(=O)N[C@@H](CCCNC(=N)N)C(=O)N[C@@H](CCCCN)C(=O)N[C@@H](CCCNC(=N)N)C(=O)N[C@@H](CCC(N)=O)C(=O)N[C@@H](CCC(N)=O)C(N)=O)[C@@H](C)CC)[C@@H](C)CC)[C@@H](C)O)[C@@H](C)O)C(C)C)C(C)C` [Melittin], in the assay on M2 macrophages [1], the FITC-positive cells entry is on record as “significantly increased”.

“GIGAVLKVLTTGLPALISWIKRKRQQ-GGGGS-d[KLAKLAKKLAKLAK] (SEQ ID NO: 5), peptide with linker and drug dKLA attached to melittin [Melittin-dKLA]”: the cell viability entry is on record as “the decrease in cell viability by Melittin-dKLA was suppressed” in assay [2] and “significantly reduced” in the assay with M2 macrophages [3].

The Kd is a measure of binding affinity in units of concentration. High values mean weaker binding, low ones tighter binding. A word on the koff: it is a measure of how fast the partners let go of each other. Low readings indicate a long-lived complex, high ones a short-lived complex. The kon is the rate constant with which the complex forms. In assay [4], Melittin-dKLA (peptide) registered a Ka of 1.27e+07 M⁻¹, a Kd of 78.6 nM, a koff of 0.00381 s⁻¹ and a kon of 48500 M⁻¹ s⁻¹.
